Results: patent publication US20170137512A1 (Ablynx, published 2017)
Read-outs that look alike come from different tables or passages of the source.

What was measured:
[1] = biological target: T1, human Kv1.3 (Homo sapiens, UniProt P22001 1-575)
[2] = biological target: T1, human Kv1.3; assay: cell-based or functional assay
[3] = biological target: T2, cyno Kv1.3 (Macaca fascicularis, UniProt P22001 1-575 (human entry)); assay: FACS, CHO cells expressing cyno Kv1.3
T2 construct: Expressed on CHO cells; also called cyKv1.3; cynomolgus Kv1.3
T2 chain: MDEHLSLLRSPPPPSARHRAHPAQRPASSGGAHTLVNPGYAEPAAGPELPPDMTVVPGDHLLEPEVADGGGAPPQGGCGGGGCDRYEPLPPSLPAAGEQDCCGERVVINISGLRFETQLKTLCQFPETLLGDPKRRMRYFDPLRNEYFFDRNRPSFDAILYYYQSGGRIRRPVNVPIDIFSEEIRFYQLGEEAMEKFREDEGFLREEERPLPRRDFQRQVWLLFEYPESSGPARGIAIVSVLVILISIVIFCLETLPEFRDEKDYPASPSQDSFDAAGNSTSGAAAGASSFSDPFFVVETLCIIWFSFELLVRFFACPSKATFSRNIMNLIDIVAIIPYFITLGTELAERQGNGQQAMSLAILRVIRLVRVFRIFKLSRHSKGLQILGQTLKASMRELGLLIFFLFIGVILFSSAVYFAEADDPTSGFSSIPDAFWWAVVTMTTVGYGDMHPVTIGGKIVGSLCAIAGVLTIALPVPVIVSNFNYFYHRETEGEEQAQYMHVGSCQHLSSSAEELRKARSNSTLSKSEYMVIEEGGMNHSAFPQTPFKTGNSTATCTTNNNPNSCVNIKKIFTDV

[4] = biological target: T1, human Kv1.3; assay: FACS, CHO cells expressing human Kv1.3
[5] = biological target: T2, cyno Kv1.3
[6] = biological target: T3, rat Kv1.3 (Rattus norvegicus, UniProt P15384 1-525); assay: FACS, CHO cells expressing rat Kv1.3
T3 construct: Expressed on CHO cells

[7] = biological target: T1, human Kv1.3; assay: cell-based or functional assay; remark: listed apart in the source
[8] = biological target: T1, human Kv1.3; assay: cell-based or functional assay; remark: listed apart in the source
[9] = biological target: T1, human Kv1.3; assay: cell-based or functional assay; remark: listed apart in the source
[10] = biological target: T1, human Kv1.3; assay: cell-based or functional assay; remark: listed apart in the source
[11] = biological target: T2, cyno Kv1.3
[12] = biological target: T1, human Kv1.3; assay: cell-based or functional assay; remark: listed apart in the source
[13] = biological target: T2, cyno Kv1.3; assay: FACS, CHO cells expressing cyno Kv1.3
[14] = biological target: T1, human Kv1.3; assay: FACS, CHO cells expressing human Kv1.3; remark: listed apart in the source
[15] = biological target: T3, rat Kv1.3; assay: FACS, CHO cells expressing rat Kv1.3, with 50 µM HSA
[16] = biological target: T1, human Kv1.3; assay: cell-based or functional assay; remark: listed apart in the source
[17] = biological target: T3, rat Kv1.3; assay: FACS, CHO cells expressing rat Kv1.3; remark: listed apart in the source
[18] = biological target: T2, cyno Kv1.3; assay: FACS, CHO cells expressing cyno Kv1.3, with 50 µM HSA
[19] = biological target: T2, cyno Kv1.3; assay: FACS, CHO cells expressing cyno Kv1.3
[20] = biological target: T3, rat Kv1.3; assay: FACS, CHO cells expressing rat Kv1.3; remark: listed apart in the source

T1 sequence (P22001 whole entry): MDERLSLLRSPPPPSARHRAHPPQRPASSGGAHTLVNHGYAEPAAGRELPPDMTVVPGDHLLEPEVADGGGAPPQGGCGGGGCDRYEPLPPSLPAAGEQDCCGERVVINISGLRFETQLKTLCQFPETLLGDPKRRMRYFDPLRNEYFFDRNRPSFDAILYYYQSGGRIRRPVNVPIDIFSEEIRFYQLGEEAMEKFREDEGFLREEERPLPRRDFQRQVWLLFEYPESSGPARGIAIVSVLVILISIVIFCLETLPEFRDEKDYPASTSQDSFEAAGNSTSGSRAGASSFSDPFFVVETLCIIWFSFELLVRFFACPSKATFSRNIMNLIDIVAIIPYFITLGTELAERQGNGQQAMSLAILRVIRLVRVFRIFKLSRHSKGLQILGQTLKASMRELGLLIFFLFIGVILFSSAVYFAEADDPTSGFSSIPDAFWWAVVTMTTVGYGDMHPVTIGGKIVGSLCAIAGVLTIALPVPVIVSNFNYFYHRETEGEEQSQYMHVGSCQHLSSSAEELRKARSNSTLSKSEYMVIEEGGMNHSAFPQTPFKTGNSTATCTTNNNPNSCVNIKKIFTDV

B1: A0194009G09 (VHH)
VHH: EVQLVESGGGLVQAGGSLGLSCSASGLLFSRNSAGWYRQAPGKQREFVARIRMGGSINYADTVKGRFTISRDNAKNTVYLQMNSLKPEDTAVYYCSSWRTGFYEYWGQGTLVTVSS
notes: Monovalent Nanobody of family 12; not shown: triple Flag, His6 tag
- IC50 (read off the curve) [1]: ~10 nM
- IC50, CD25 read out, CCR7-CD45RA- T cells stimulated with anti-CD3 [2]: 62 nM
- IC50, IFNγ read out, CCR7-CD45RA- T cells stimulated with anti-CD3 [2]: 47 nM
- EC50 [3]: 11 nM
- EC50 [4]: 7.9 nM
- IC50 [5]: 9.8 nM
- EC50 [6]: 240 nM
- Average IC50, Kv1.3 current, IonFlux automated patch clamp, HEK293H cells [7]: 8.2 nM
- Average IC50, Kv1.3 current, IonWorks perforated patch clamp, CHL cells [8]: 37 nM

B2: A019400012 (other)
chain: EVQLVESGGGLVQAGGSLGLSCSASGLLFSRNSAGWYRQAPGKQREFVARIRMGGSINYADTVKGRFTISRDNAKNTVYLQMNSLKPEDTAVYYCSSWRTGFYEYWGQGTLVTVSSGGGGSGGGGSGGGGSGGGGSGGGGSGGGGSGGGGSEVQLVESGGGLVQAGGSLSLSCTASGGTFRNFGMGWFRQAQGKEREFVAAISRTGGHTYYQDSVKGRFTISKDNAKNILSLQMNSLKPEDTAVYYCAARFRFGDGTYYYQRAFYDFWGQGTLVTVSS
- Average IC50, Kv1.3 current, IonFlux automated patch clamp, HEK293H cells [9]: 4.2 nM
- IC50, CD25 read out, CCR7-CD45RA- T cells stimulated with anti-CD3 [10]: 310 pM
- IC50, IFNγ read out, CCR7-CD45RA- T cells stimulated with anti-CD3 [10]: 310 pM
- IC50 [11]: 0.5 nM
- Average IC50, Kv1.3 current, IonWorks perforated patch clamp, CHL cells [12]: 4.2 nM

B3: A019400009 (VHH)
chain: EVQLVESGGGLVQAGGSLGLSCSASGLLFSRNSAGWYRQAPGKQREFVARIRMGGSINYADTVKGRFTISRDNAKNTVYLQMNSLKPEDTAVYYCSSWRTGFYEYWGQGTLVTVSSGGGGSGGGGSGGGGSGGGGSGGGGSGGGGSGGGGSEVQLVESGGGLVQAGGSLGLSCSASGLLFSRNSAGWYRQAPGKQREFVARIRMGGSINYADTVKGRFTISRDNAKNTVYLQMNSLKPEDTAVYYCSSWRTGFYEYWGQGTLVTVSS
- Average IC50, Kv1.3 current, IonFlux automated patch clamp, HEK293H cells [9]: 0.73 nM
- Average IC50, Kv1.3 current, IonWorks perforated patch clamp, CHL cells [12]: 0.81 nM

B4: A019400013 (VHH)
chain: B3 chain
notes: Bivalent Nanobody construct (family 12 - family 12), without Alb11; also called A0194009G09-35GS-A0194009G09
- EC50 [13]: 0.24 nM
- EC50 [14]: 0.32 nM
- EC50 [15]: 0.85 nM
- IC50, CD25 read out, T cell activation assay [16]: 120 pM
- IC50, CD25 read out, T cell activation assay, with 10 µM HSA [16]: 37 pM
- IC50, IFNγ read out, T cell activation assay [16]: 83 pM
- IC50, IFNγ read out, T cell activation assay, with 10 µM HSA [16]: 31 pM
- IC50, CD25 read out, CCR7-CD45RA- T cells stimulated with anti-CD3 [10]: 120 pM
- IC50, IFNγ read out, CCR7-CD45RA- T cells stimulated with anti-CD3 [10]: 83 pM
- EC50 [17]: 0.704 nM
- IC50 [11]: 0.66 nM
- EC50 [18]: 0.45 nM
- EC50 [19]: 0.33 nM
- EC50 [20]: 0.49 nM

B5: A019400004 (other)
chain: EVQLVESGGGLVQAGGSLSLSCTASGGTFRNFGMGWFRQAQGKEREFVAAISRTGGHTYYQDSVKGRFTISKDNAKNILSLQMNSLKPEDTAVYYCAARFRFGDGTYYYQRAFYDFWGQGTQVTVSSGGGGSGGGGSGGGGSGGGGSGGGGSGGGGSGGGGSGGGGSEVQLVESGGGLVQAGGSLSLSCTASGGTFRNFGMGWFRQAQGKEREFVAAISRTGGHTYYQDSVKGRFTISKDNAKNILSLQMNSLKPEDTAVYYCAARFRFGDGTYYYQRAFYDFWGQGTQVTVSS
notes: Bivalent Nanobody construct (family 1 - family 1), expressed in Pichia; also called A019400003-40GS-A019400003
- EC50 [13]: 0.44 nM
- EC50 [14]: 2.2 nM
- IC50 [11]: 0.64 nM
- Average IC50, Kv1.3 current, IonWorks perforated patch clamp, CHL cells [12]: > 1000 nM
- EC50 [20]: 1.1 nM

B6: A019400015 (VHH)
chain: EVQLVESGGGLVQAGGSLGLSCSASGLLFSRNSAGWYRQAPGKQREFVARIRMGGSINYADTVKGRFTISRDNAKNTVYLQMNSLKPEDTAVYYCSSWRTGFYEYWGQGTLVTVSSGGGGSGGGGSGGGGSGGGGSGGGGSGGGGSGGGGSEVQLVESGGGLVQAGGSLGLSCSASGLLFSRNSAGWYRQAPGKQREFVARIRMGGSINYADTVKGRFTISRDNAKNTVYLQMNSLKPEDTAVYYCSSWRTGFYEYWGQGTLVTVSSGGGGSGGGGSGGGGSGGGGSGGGGSGGGGSGGGGSEVQLVESGGGLVQAGGSLGLSCSASGLLFSRNSAGWYRQAPGKQREFVARIRMGGSINYADTVKGRFTISRDNAKNTVYLQMNSLKPEDTAVYYCSSWRTGFYEYWGQGTLVTVSS
notes: Trivalent Nanobody construct (family 12); also called A0194009G09-35GS-A0194009G09-35GS-A0194009G09
- EC50 [13]: 0.31 nM
- EC50 [14]: 0.66 nM
- IC50, CD25 read out, CCR7-CD45RA- T cells stimulated with anti-CD3 [10]: 59 pM
- IC50, IFNγ read out, CCR7-CD45RA- T cells stimulated with anti-CD3 [10]: 32 pM
- IC50 [11]: 0.2 nM
- Average IC50, Kv1.3 current, IonWorks perforated patch clamp, CHL cells [12]: 0.8 nM
- EC50 [20]: 0.44 nM

B7: A019400003 (VHH)
VHH: EVQLVESGGGLVQAGGSLSLSCTASGGTFRNFGMGWFRQAQGKEREFVAAISRTGGHTYYQDSVKGRFTISKDNAKNILSLQMNSLKPEDTAVYYCAARFRFGDGTYYYQRAFYDFWGQGTQVTVSS
notes: Monovalent Nanobody of family 1, purified from E. coli TG1; not shown: triple Flag, His6 tag
- IC50 (read off the curve) [1]: ~30 nM
- EC50 [3]: 2.5 nM
- EC50 [4]: 6.2 nM
- IC50 [5]: 1.3 nM
- EC50 [6]: 380 nM
- Average IC50, Kv1.3 current, IonWorks perforated patch clamp, CHL cells [8]: > 1000 nM

B8: A019400014 (other)
chain: EVQLVESGGGLVQAGGSLSLSCTASGGTFRNFGMGWFRQAQGKEREFVAAISRTGGHTYYQDSVKGRFTISKDNAKNILSLQMNSLKPEDTAVYYCAARFRFGDGTYYYQRAFYDFWGQGTLVTVSSGGGGSGGGGSGGGGSGGGGSGGGGSGGGGSGGGGSEVQLVESGGGLVQAGGSLGLSCSASGLLFSRNSAGWYRQAPGKQREFVARIRMGGSINYADTVKGRFTISRDNAKNTVYLQMNSLKPEDTAVYYCSSWRTGFYEYWGQGTLVTVSS
notes: Biparatopic Nanobody construct (family 1 - family 12); also called A019400003-35GS-A0194009G09; A019400011
- EC50 [13]: 0.41 nM
- EC50 [14]: 1.1 nM
- Average IC50, Kv1.3 current, IonFlux automated patch clamp, HEK293H cells [9]: 14 nM
- IC50, CD25 read out, CCR7-CD45RA- T cells stimulated with anti-CD3 [10]: 110 pM
- IC50, IFNγ read out, CCR7-CD45RA- T cells stimulated with anti-CD3 [10]: 320 pM
- IC50 [11]: 0.61 nM
- Average IC50, Kv1.3 current, IonWorks perforated patch clamp, CHL cells [12]: 14 nM
- EC50 [20]: 0.74 nM

B9: A019400032 (VHH)
chain: DVQLVESGGGLVQAGGSLGLSCSASGLLFSRNSAGWYRQAPGKRREFVARIRMGGSINYADSVKGRFTVSRDNAKNMMYLQMNDLKPEDTAVYFCSGWREGFYEYWGQGTLVTVSSGGGGSGGGGSGGGGSGGGGSGGGGSGGGGSGGGGSEVQLVESGGGLVQAGGSLGLSCSASGLLFSRNSAGWYRQAPGKRREFVARIRMGGSINYADSVKGRFTVSRDNAKNMMYLQMNDLKPEDTAVYFCSGWREGFYEYWGQGTLVTVSS
- IC50, CD25 read out, T cell activation assay [16]: 120 pM
- IC50, CD25 read out, T cell activation assay, with 10 µM HSA [16]: 330 pM
- IC50, IFNγ read out, T cell activation assay [16]: 69 pM
- IC50, IFNγ read out, T cell activation assay, with 10 µM HSA [16]: 86 pM
- IC50, CD25 read out, CCR7-CD45RA- T cells stimulated with anti-CD3 [10]: 120 pM
- IC50, IFNγ read out, CCR7-CD45RA- T cells stimulated with anti-CD3 [10]: 69 pM
- IC50 [11]: 0.56 nM
- Average IC50, Kv1.3 current, IonWorks perforated patch clamp, CHL cells [12]: 1.2 nM
